Test [1] addresses T1, human CD3 protein endogenously expressed on Jurkat cells (human, UniProt P07766 23-207).
T1 construct: whole, on cells; The whole CD3 complex is on the cells; also called CD3 on Jurkat cells; CD3 on Jurkat/NFAT-luc cells
The experiment in a line: flow cytometry, Jurkat cells (endogenous CD3), PE anti-human IgG Fc secondary, MFI; EC50 table under the plot, unit from the axis Conc.(nM). Here is the method: (§1) (3) Whether the anti-CD3/anti-MUC16 bispecific antibodies in the present invention could bind to the CD3 protein endogenously expressed on Jurkat cells (Cell Bank of Type Culture Collection Committee of the Chinese Academy of Sciences, Cat #SCSP-513) was determined by cell binding experiments. Detection was performed using the flow cytometry described above, with the following differences: the dilution gradient for the test bispecific antibody was: a maximum concentration of 200 nM, starting from a second concentration of 100 nM, 5-fold dilution, 10 points; the bispecific antibodies were added to Jurkat cells, and the cells were incubated at 4° C. for 30 min. The cells were washed twice with PBS, and then fluorescent secondary antibody R-PE-conjugated AffiniPure Goat Anti-Human IgG, Fcγ Fragment Specific was added. The cells were incubated at 4° C. for 30 min. The cells were washed twice with PBS and then resuspended, and finally, fluorescence signals were detected using a BD Accuri C5 (BD Bioscience) flow cytometer.

In test [2] the target is T2, human MUC16 protein endogenously expressed on cells (human, UniProt Q8WXI7 1-14507).
T2 construct: whole, on cells; also called MUC16 on OVCAR3 cells; MUC16 in ovarian carcinoma tissue
The experiment in a line: flow cytometry, OVCAR3 cells (endogenous human MUC16), PE anti-human IgG Fc secondary, MFI; EC50 table under the plot, unit from the axis Conc.(nM). Here is the method:
(1) Whether the anti-CD3/anti-MUC16 bispecific antibodies in the present invention could bind to the MUC16 protein endogenously expressed on human ovarian carcinoma cells (OVCAR3) (Cell Bank of Type Culture Collection Committee of the Chinese Academy of Sciences, Cat #TCHu228) was determined by cell binding experiments.
The experiments were performed using flow cytometry. OVCAR3 cells were digested, centrifuged and collected. The cells were resuspended in a PBS solution, and seeded into a 96-well plate (Corning, Cat #3799) at 1×10⁵ cells/well. The 96-well plate was centrifuged and then the supernatant was discarded. 100 μL of the serially diluted test bispecific antibody (at a maximum concentration of 200 nM, 5-fold dilution from 100 nM, 9 concentration points in total) was added to the OVCAR3 cells. The plate was incubated at 4° C. for 30 min and centrifuged (1000 rpm, 5 min), and then the supernatant was discarded. 100 μL of PBS solution was added to each well, and the cells were washed twice. 100 μL of fluorescent secondary antibody R-PE-conjugated AffiniPure Goat Anti-Human IgG, Fcγ Fragment Specific (Jackson ImmunoResearch, Cat #109-116-098) diluted in a ratio of 1:200 was then added. The cells were incubated at 4° C. for 30 min. After the cells were washed twice with the PBS solution, 100 μL of PBS solution was added to each well to resuspend the cells, and finally, fluorescence signals were detected using a BD Accuri C5 (BD Bioscience) flow cytometer according to the manufacturer's instructions. REGN4018 was used as a positive control.

For test [3], the target named is T3, rhesus monkey MUC16 protein (ECT_TM RhMuc16) on 293T cells (rhesus monkey).
T3 chain: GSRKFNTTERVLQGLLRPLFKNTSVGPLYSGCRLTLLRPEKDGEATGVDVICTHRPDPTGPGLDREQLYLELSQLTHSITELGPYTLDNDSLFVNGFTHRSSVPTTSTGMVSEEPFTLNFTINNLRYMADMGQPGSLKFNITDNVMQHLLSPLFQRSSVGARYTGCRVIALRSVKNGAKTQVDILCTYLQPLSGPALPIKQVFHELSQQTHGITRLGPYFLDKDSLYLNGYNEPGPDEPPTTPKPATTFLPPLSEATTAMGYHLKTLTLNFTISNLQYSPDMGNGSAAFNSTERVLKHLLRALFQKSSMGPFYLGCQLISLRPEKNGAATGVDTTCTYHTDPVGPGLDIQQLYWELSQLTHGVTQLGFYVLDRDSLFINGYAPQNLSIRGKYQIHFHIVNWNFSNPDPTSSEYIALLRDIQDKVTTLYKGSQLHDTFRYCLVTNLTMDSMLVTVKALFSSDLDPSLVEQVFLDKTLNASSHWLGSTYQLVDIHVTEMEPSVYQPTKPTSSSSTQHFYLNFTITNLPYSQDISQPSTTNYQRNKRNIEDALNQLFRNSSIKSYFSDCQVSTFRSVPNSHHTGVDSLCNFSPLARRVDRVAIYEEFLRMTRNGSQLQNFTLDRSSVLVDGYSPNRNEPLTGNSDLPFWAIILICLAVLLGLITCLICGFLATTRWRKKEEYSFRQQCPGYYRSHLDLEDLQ
The test can be described thus: flow cytometry, 293T/rhesus MUC16 cells as printed on the sheet and in the legend (the example, paragraph 611, speaks of cynomolgus MUC16), PE anti-human IgG Fc secondary, MFI; EC50 table under the plot, unit from the axis Conc.(nM); curve still rising at the top concentration of 100 nM. How it is done:
(§2) Referring to the flow cytometry described above, the serially diluted test bispecific antibody (at an initial concentration of 100 nM, 5-fold dilution, 9 points) was added to the cells, and the plate was incubated at 4° C. for 30 min. The cells were washed twice with PBS, and then fluorescent secondary antibody R-PE-conjugated AffiniPure Goat Anti-Human IgG, Fcγ Fragment Specific was added. The cells were incubated at 4° C. for 30 min. The cells were washed twice with PBS and then resuspended, and finally, fluorescence signals were detected using a BD Accuri C5 (BD Bioscience) flow cytometer.

The target in test [4] is T1, human CD3 protein endogenously …. The test can be described thus: flow cytometry, Jurkat cells (endogenous CD3), PE anti-human IgG Fc secondary, MFI; EC50 table under the plot, unit from the axis Conc.(nM); curve still rising at the top concentration. How it is done:
as §1

The target in test [5] is T3, rhesus monkey MUC16 protein (ECT_TM …). The test can be described thus: flow cytometry, 293T/rhesus MUC16 cells as printed on the sheet and in the legend (the example, paragraph 611, speaks of cynomolgus MUC16), PE anti-human IgG Fc secondary, MFI; EC50 table under the plot, unit from the axis Conc.(nM); curve still rising at the top concentration of 100 nM, the value lies beyond the range shown. How it is done: as §2

T1 sequence (P07766 23-207): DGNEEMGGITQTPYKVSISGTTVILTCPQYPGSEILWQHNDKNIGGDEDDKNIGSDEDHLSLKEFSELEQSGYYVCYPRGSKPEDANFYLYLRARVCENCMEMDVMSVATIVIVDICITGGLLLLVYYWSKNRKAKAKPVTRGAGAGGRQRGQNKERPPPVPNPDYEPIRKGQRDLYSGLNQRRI

B1: anti-CD3/MUC16 bispecific antibody 2MCH7-23L2 (bispecific antibody, human IgG1, kappa, L234A L235A)
heavy 1: not shown
heavy 2: EVQLVESGGGLVQPGGSLKLSCAASGFTFSTYAMNWVRQAPGKGLEWVGRIRSKYNNYATYYADSVKDRFTISRDDSKNTLYLQMNSLKTEDTAVYYCTRHGNFGNSYVSWFAYWGQGTTVTVSSGGGGSGGGGSGGGGSQAVVTQEPSLTVSPGGTVTLTCRSSTGAVTTSNYANWVQQKPGQAPRGLIGGTNKRAPGVPARFSGSLLGGKAALTLSGAQPEDEAEYFCALWYSNLWVFGGGTKLTVLGEPKSSDKTHTCPPCPAPEAAGGPSVFLFPPKPKDTLMISRTPEVTCVVVAVSHEDPEVKFNWYVDGVEVHNAKTKPREEQYNSTYRVVSVLTVLHQDWLNGKEYKCKVSNKALAAPIEKTISKAKGQPREPQVCTLPPSRDELTKNQVSLSCAVKGFYPSDIAVEWESNGQPENNYKTTPPVLDSDGSFFLVSKLTVDKSRWQQGNVFSCSVMHEALHNHYTQKSLSLSPGK
light: EIVLTQSPATLSLSPGERATLSCRASSSVIYMSWYQQKPGQAPRLLIYGTSTLASGIPARFSGSGSGTDFTLTISSLEPEDFAVYYCQQWSSNPFTFGQGTKLEIKRTVAAPSVFIFPPSDEQLKSGTASVVCLLNNFYPREAKVQWKVDNALQSGNSQESVTEQDSKDSTYSLSSTLTLSKADYEKHKVYACEVTHQGLSSPVTKSFNRGEC
notes: 2MCH7-KIH-Knob (VH-CH1-VH-CH1-Fc) + 23L2ScFv-Hole + two light chains MCL4 LC
Turning to B1, the values for the concentration giving a half-maximal response (EC50) in test [1], in test [2] and in test [3] were 14 nM, 2.78 nM and 48.4 nM, respectively.

B2: anti-CD3/MUC16 bispecific antibody MCH7-23L2 (bispecific antibody, human IgG1, kappa, L234A L235A)
heavy 1: EVQLVESGGGLVQPGGSLKLSCAASGFTFSTYAMNWVRQAPGKGLEWVGRIRSKYNNYATYYADSVKDRFTISRDDSKNTLYLQMNSLKTEDTAVYYCTRHGNFGNSYVSWFAYWGQGTTVTVSSGGGGSGGGGSGGGGSQAVVTQEPSLTVSPGGTVTLTCRSSTGAVTTSNYANWVQQKPGQAPRGLIGGTNKRAPGVPARFSGSLLGGKAALTLSGAQPEDEAEYFCALWYSNLWVFGGGTKLTVLGEPKSSDKTHTCPPCPAPEAAGGPSVFLFPPKPKDTLMISRTPEVTCVVVAVSHEDPEVKFNWYVDGVEVHNAKTKPREEQYNSTYRVVSVLTVLHQDWLNGKEYKCKVSNKALAAPIEKTISKAKGQPREPQVCTLPPSRDELTKNQVSLSCAVKGFYPSDIAVEWESNGQPENNYKTTPPVLDSDGSFFLVSKLTVDKSRWQQGNVFSCSVMHEALHNHYTQKSLSLSPGK
heavy 2: not shown
light: EIVLTQSPATLSLSPGERATLSCRASSSVIYMSWYQQKPGQAPRLLIYGTSTLASGIPARFSGSGSGTDFTLTISSLEPEDFAVYYCQQWSSNPFTFGQGTKLEIKRTVAAPSVFIFPPSDEQLKSGTASVVCLLNNFYPREAKVQWKVDNALQSGNSQESVTEQDSKDSTYSLSSTLTLSKADYEKHKVYACEVTHQGLSSPVTKSFNRGEC
notes: 23L2ScFv-Hole + MCH7-KIH-Knob + one light chain MCL4 LC
On to B2, for which the half-maximal effective concentration (EC50) in test [2] came to 17.2 nM; in test [4] it was 70.7 nM; in test [5] it was 182 nM.

Source of the values: patent US20250092135A1 (NANJING LEADS BIOLABS, published 2025).
